According to US11149086B2, “KV1.3 binding immunoglobulins” (Ablynx N.V., priority 2014, dated 2021):

What was measured:
[1] = molecular target: T1, human Kv1.3 (Homo sapiens, UniProt P22001); experiment: FACS competition with FAM-labeled ShK on HEK293H human Kv1.3 cells; assay type: binding
T1 construct: cell lines stably expressing the full length human Kv1.3 channel
Protocol: To evaluate the competition between the toxin ShK and the Nanobodies for binding to Kv1.3, a FACS competition experiment was performed using HEK293H cells overexpressing human Kv1.3 and the parental HEK293H cells as background cell line. As detection reagent, FAM-labeled ShK was used (6-FAM-AEEAc-Stichodactyla helianthus Neurotoxin (ShK) (Bachem, H-6088, 1046522, PRT00000366/01/01)). To setup the assay, first a titration series of the labeled Shk-FAM was performed on the HEK293H Kv1.3 cells in order to determine the EC50 value for binding.
In brief, a dilution series of ShK or Nanobody were added together with the labeled toxin to 200 000 cells in a 96-well plate. After 90 minutes incubation at 4° C., cells were washed three times before read out was performed on a FACS Canto (Becton Dickinson). First a gate was set on the intact cells as determined from the scatter profile. Next, dead cells were gated out by their fluorescence profile from the TOPRO stain (5 nM, Molecular probes, T3605). […] The percentage of inhibition for Nanobodies blocking the interaction of ShK to human Kv1.3 is depicted in Table B-11.

[2] = system: cyno Kv1.3; experiment: 125I-margatoxin competition on cyno Kv1.3 expressing CHO cells; assay type: binding, cynomolgus; conditions: 150 pM I125 margatoxin
Sequence of cyno Kv1.3 (as listed by the source): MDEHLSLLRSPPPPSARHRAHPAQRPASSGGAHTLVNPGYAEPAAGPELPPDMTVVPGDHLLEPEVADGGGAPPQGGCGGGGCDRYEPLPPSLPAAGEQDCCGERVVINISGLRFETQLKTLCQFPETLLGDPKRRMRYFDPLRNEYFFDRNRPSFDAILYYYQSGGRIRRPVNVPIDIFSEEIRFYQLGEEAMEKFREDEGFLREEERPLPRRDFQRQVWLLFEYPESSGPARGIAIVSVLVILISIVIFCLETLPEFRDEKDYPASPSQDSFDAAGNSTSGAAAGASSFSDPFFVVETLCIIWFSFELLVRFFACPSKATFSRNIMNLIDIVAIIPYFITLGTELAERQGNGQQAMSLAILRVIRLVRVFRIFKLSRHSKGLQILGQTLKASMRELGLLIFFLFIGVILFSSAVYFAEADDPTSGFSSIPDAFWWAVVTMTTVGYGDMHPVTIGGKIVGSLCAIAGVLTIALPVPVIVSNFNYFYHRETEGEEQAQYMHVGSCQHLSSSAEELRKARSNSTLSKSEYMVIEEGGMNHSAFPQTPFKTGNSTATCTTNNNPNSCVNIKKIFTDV
Protocol: Periplasmic extracts were screened in a radioligand 125I-margatoxin competition assay to assess the blocking capacity of the expressed Nanobodies. Cynomolgous Kv1.3 was presented on CHO cells overexpressing Kv1.3.
In order to detect binding of margatoxin to cell expressed Kv1.3, a radiolabeled toxin was used (125I-margatoxin; MgTX; Perkin Elmer, NEX083). To setup the assay, first a titration series of the radiolabeled 125I-margatoxin was performed on the CHO-cyKv1.3 and parental CHO K1 cells. To have maximum sensitivity of the screening, the EC30 concentration (150 pM) was chosen for competition during screening and later on, also characterization.
In brief, 35 μl of periplasmic extract was added to 150 pM labeled margatoxin (50 μl) and 40000 CHO-cyKv1.3 cells that were seeded the day before in a poly-D-lysine coated 96-well plate (BD Biocoat, Cat354620) in a total of 200 μl. After two hours incubation at RT, cells were washed two times before read out was performed with 100 μl/well MicroScint-20 (Perkin Elmer) on a TopCount device (Perkin Elmer).
As reference compounds, a dilution series of ShK-1aJ (Smartox, #08SHK001) and unlabeled margatoxin (Alamone labs, Cat RTM-325) were included. […] For each sample the percentage block was determined using the control samples to determine the assay window. […]

T1 sequence (P22001 whole entry): as the sequence (as listed by the source) above, with H4R, A23P, P38H, P47R, P269T, D275E, A284S, A285R, A497S counted along it

B1: A019400003: monovalent anti-Kv1.3 Nanobody, family 1 (protein)
VHH: EVQLVESGGGLVQAGGSLSLSCTASGGTFRNFGMGWFRQAQGKEREFVAAISRTGGHTYYQDSVKGRFTISKDNAKNILSLQMNSLKPEDTAVYYCAARFRFGDGTYYYQRAFYDFWGQGTQVTVSS
modifications: Nanobody sequence
Q: Which “blocking of FAM labeled ShK binding to Kv1.3, in words” value ([1]; 70 nM ShK-FAM) does the source give for B1 here?
A: only partially blocked

Q: And the “% inhibition of ShK-Fam binding” value ([1]; 70 nM ShK-Fam (100x EC50), HEK 293H hu Kv1.3 cells)?
A: 87.13%

Q: And the “block of I125 margatoxin binding, in words” value [2]?
A: completely block
